Here are results for 140 substances from the supplement of paper PMC12042874.

± gives the uncertainty stated by the source.

The data set in a line: amyloid nucleation score (Sup35N fusion, yeast selection) (log enrichment); library NNK2; higher = more nucleation; inactive = no reads after selection. In short, it runs like this: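 Plasmid inserts were Illumina-sequenced at input and output from psi-negative yeast expressing Sup35N fused to peptides of 20 random codons. The yeast were induced with 100 μM copper sulfate for 24 hours and grown 7 days at 30°C on medium lacking adenine and uracil, and sequences with under 100 input reads were excluded. Nucleation score is the DiMSum log enrichment of output over input reads, centred on the mode score of non-aggregating sequences.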
On to PNRKSYLAYNMDSPT, for which the amyloid nucleation score was -0.32 ± 0.24.

In turn, ERNSWISLIQTF returned an amyloid nucleation score of -0.693 ± 0.39.

Take WFRYNCHDFSLTNPWRHHNL: the amyloid nucleation score is 0.507 ± 0.52.

SRTWEFSFR returned an amyloid nucleation score of 2.5 ± 0.12.

On to GIMSSELLYYYVRISYESC, for which the amyloid nucleation score is -1.21 ± 0.45.

As for VFVSCYYAYLLRDTTNFYVG, the amyloid nucleation score entry is “inactive”.

VNSEPDTLEGNENWYMGTRC displayed an amyloid nucleation score of -0.125 ± 0.49.

GRVKTYTVGFVNIIHFSWLG gave an amyloid nucleation score of 3.57 ± 0.053.

Consider IDERATSEDSSGRKDSVTFL, for which the amyloid nucleation score was -0.306 ± 0.28.

Turning to CHNNFNCPNVLVFLARELSI, the amyloid nucleation score stood at 4.99 ± 0.079.

Consider PCENLVCEII, for which the amyloid nucleation score entry was “inactive”.

Take SCYRIWIMILVIGFSLNRRL: the amyloid nucleation score was -0.208 ± 0.2.

Substance ATESIMLLPYNTDPSMTWLT gave an amyloid nucleation score of 0.227 ± 0.55.

The substance MRMVA returned an amyloid nucleation score of -0.723 ± 0.49.

Consider LTRFMYYLFTDLC, for which the amyloid nucleation score was -0.813 ± 1.1.

On to FTAFWGYSTSVFHMDMCLRK, for which the amyloid nucleation score is 2.17 ± 0.071.

On to QIQVYMNALLTRLSSIILIF, for which the amyloid nucleation score was -0.93 ± 0.55.

As for YTLFLPTRNLRFLVVYGVLV, the amyloid nucleation score was 0.009 ± 0.61.

In the case of VGTSWLFLMV, the amyloid nucleation score entry is “inactive”.

Substance IIPQNSQDQNRDISVKAFSV gave an amyloid nucleation score of -0.937 ± 0.61.

As to MYIGVL, the amyloid nucleation score was -0.065 ± 0.45.

Regarding GLNIGVCLIMHEDRTNSGGK, the amyloid nucleation score worked out at 8.011 ± 0.032.

PRMSTMTTKCGKLKNGKYRR displayed an amyloid nucleation score of 0.549 ± 0.51.

As for IYIAKW, the amyloid nucleation score is -0.656 ± 0.33.

As for RFKSNNRPCWHCHPLLGFRT, the amyloid nucleation score turned out to be 1.06 ± 0.43.

As for TCLSRVPPS, the amyloid nucleation score is -0.797 ± 0.61.

SCAHKELCQSVLRDVYWCTL: the amyloid nucleation score is -0.224 ± 0.79.

The substance NIDSELSCDYD came in with an amyloid nucleation score of -0.784 ± 0.76.

For the substance CYHRKFVLLFFLSNR, the amyloid nucleation score entry was “inactive”.

As to VGSSEAFCYGLTDFKRENLA, the amyloid nucleation score entry was “inactive”.

In turn, FNVLIACWGYKDNFNVYSCE showed an amyloid nucleation score of 5.844 ± 0.035.

The substance FYDSVKEISVLSCVWGDILE came in with an amyloid nucleation score of 7.235 ± 0.029.

Take FNISSNVICDNFRDPLVESD: the amyloid nucleation score is -1.87 ± 0.78.

Consider ILRCLNLYMRSIMRVELSIQ, for which the amyloid nucleation score was 0.461 ± 0.8.

On to ILLPSFRPLRQAAAG, for which the amyloid nucleation score was -0.311 ± 0.79.

Substance YRRCSRGNPGCDLAGFGRVV gave an amyloid nucleation score of -0.08 ± 0.74.

As to PSFTLMDVFRI, the amyloid nucleation score was 0.701 ± 0.26.

AFHRECPGSSVQDWFTWRGT gave an amyloid nucleation score of -0.36 ± 0.63.

On to HVCCFKSQDRCYWVG, for which the amyloid nucleation score was -0.447 ± 0.63.

Substance NFMYRSSMFMHL gave an amyloid nucleation score of 4.74 ± 0.074.

In the case of MGNLCCVPRYYMHQVEYPRF, the amyloid nucleation score entry is “inactive”.

Regarding TPGCF, the amyloid nucleation score result is “inactive”.

As to RCYINFGIHGLWMLHVCFWG, the amyloid nucleation score is -0.849 ± 1.1.

FWLGSVVGNSCAWVITWAIL: the amyloid nucleation score is -0.036 ± 0.44.

Turning to WWRNFD, the amyloid nucleation score was -0.526 ± 0.76.

The substance LFCVDNVVKKGTVP gave an amyloid nucleation score of -0.365 ± 0.76.

For the substance LGKFEA, the amyloid nucleation score result was “inactive”.

In turn, FIADIVYLMNFGEIWG showed an amyloid nucleation score of 4.68 ± 0.1.

With YSYSSFLKVSGLSSDRLGYI, the amyloid nucleation score was -0.133 ± 0.49.

NSLVYCKKPSLPFHHGCK gave an amyloid nucleation score of -0.032 ± 0.42.

Regarding KYGNFVFTFLLINPF, the amyloid nucleation score entry is “inactive”.

Regarding FGVTHVSWIQERVTADGAER, the amyloid nucleation score amounted to 0.998 ± 0.39.

Substance WDLLHYFDLF had an amyloid nucleation score of 0.232 ± 0.56.

YVMTFYTFTTIGGPGPWYGL: the amyloid nucleation score result was “inactive”.

For the substance LQFLLLE, the amyloid nucleation score came to 3.38 ± 0.047.

RVVCLLKGRWFALVLPDYCR yielded an amyloid nucleation score of 0.479 ± 0.8.

Turning to IVGVSFKSVNTNRIDPVFLF, the amyloid nucleation score entry is “inactive”.

In turn, SSQCRDVGEAGNHWCLSGSG registered an amyloid nucleation score of 2.8 ± 0.14.

MKAHVVVTLSCRYNLYGAPH: the amyloid nucleation score was 4.52 ± 0.054.

HQRGMNLISFVWHSENVRIW: the amyloid nucleation score is 1.07 ± 0.61.

Substance MAYSGKVLFHVSDIVVWGKL displayed an amyloid nucleation score of 5.9 ± 0.086.

Take HLDGWRNFDYDIS: the amyloid nucleation score was -2.3 ± 0.78.

VKSLLRDLCGPGCMLYMIVH registered an amyloid nucleation score of -0.11 ± 0.53.

Regarding FFFNVSLHVRNFLEEVSVAS, the amyloid nucleation score result was “inactive”.

With PVFCTLYHAAWSHRIRISVF, the amyloid nucleation score was -1.57 ± 0.54.

As to NVRIVYRPAGPFG, the amyloid nucleation score is -0.347 ± 0.39.

SAFSFTSLSKYGLFSFCVVR yielded an amyloid nucleation score of -0.274 ± 0.63.

KIWDCSMYTF returned an amyloid nucleation score of -1.07 ± 0.55.

In turn, FLMRDFGMWFLFSNLLYITL displayed an amyloid nucleation score of -0.628 ± 0.48.

In turn, TFYRACALTLMRDQTDSWYC gave an amyloid nucleation score of 4.35 ± 0.091.

VNFNQSRCVDYVGILVIGG returned an amyloid nucleation score of -0.248 ± 0.28.

Consider VTIER, for which the amyloid nucleation score was 0.319 ± 0.33.

VSEWFGTKGWRLDYLCLYWL showed an amyloid nucleation score of -1.03 ± 0.64.

On to GTSFVKFEK, for which the amyloid nucleation score was -0.186 ± 0.23.

In the case of NIFEYPGYRRYVCCVGWV, the amyloid nucleation score came to 4.551 ± 0.044.

As to LVMYGEDDD, the amyloid nucleation score was -0.025 ± 1.1.

Substance WFMFCNLGLGTPIGMITLRS yielded an amyloid nucleation score of -1.16 ± 0.56.

In turn, VMSFHWCVVSSVPWDCQACH showed an amyloid nucleation score of 3.93 ± 0.1.

The substance GRILNAEVFGVINASDNCAD gave an amyloid nucleation score of -0.412 ± 0.63.

WTGGFSLQSVHCNQN had an amyloid nucleation score of -0.393 ± 1.1.

For the substance FFTGFDLVPVSYI, the amyloid nucleation score result is “inactive”.

Take CCNQEVLD: the amyloid nucleation score came out at 0.575 ± 0.66.

RSSQTPFWEIGSMLLSKMCA returned an amyloid nucleation score of 0.65 ± 0.42.

For NRFMN, the amyloid nucleation score is -0.3 ± 0.46.

Substance IKMRNPSSRSSASGQQRGHV gave an amyloid nucleation score of 0.167 ± 0.26.

The substance LCQIANNSVGLRKDQEGLR gave an amyloid nucleation score of 0.375 ± 0.41.

As to DSLYWSRCSSFRTKQEVSDM, the amyloid nucleation score stood at 0.907 ± 0.3.

Substance ASHLVVTLVNKVKCNAVVRG had an amyloid nucleation score of 0.758 ± 0.21.

YCWMRRMKSLPGNMYVLAT yielded an amyloid nucleation score of 0.25 ± 0.8.

Substance FCILSWGLSVRYSRVPLNYK came in with an amyloid nucleation score of 1.14 ± 0.18.

Substance ESSFLLNHHT returned an amyloid nucleation score of -0.142 ± 0.79.

TSIMPDSFFRSLKVSF yielded an amyloid nucleation score of -0.249 ± 0.56.

Substance DVIVRLFVPYLVV gave an amyloid nucleation score of -0.199 ± 0.44.

With CAGRFRCFLMSCIDCKLGVL, the amyloid nucleation score is -0.763 ± 1.

On to DFYNRASLSYTSDVASGSPC, for which the amyloid nucleation score result was “inactive”.

Turning to NATLNNVERFRAFRGTFLDY, the amyloid nucleation score result is “inactive”.

For the substance FNDHWARRRRDFVNIWFWSE, the amyloid nucleation score is -0.047 ± 1.1.

With MDGDFSINFMDPSTTCLLYE, the amyloid nucleation score entry was “inactive”.

The substance SYYMISY displayed an amyloid nucleation score of 2.05 ± 0.12.

On to FMECVSNNRMELVAGNEKGC, for which the amyloid nucleation score was 0.082 ± 0.27.

Substance SFVVWTPWLSPSYACPRQIF registered an amyloid nucleation score of -0.124 ± 0.76.

As for YKMILGCVVRVGYRILNCIR, the amyloid nucleation score amounted to 0.295 ± 0.5.

In the case of LHWFMVEDH, the amyloid nucleation score turned out to be 0.19 ± 0.42.

Take EVDLRKSGLSGRVKFYLMLW: the amyloid nucleation score amounted to 0.839 ± 0.57.

Take TNSALGSMVYELGRPLVWFF: the amyloid nucleation score result is “inactive”.

As to EYTIFTDLLLYDFKWLEYVW, the amyloid nucleation score turned out to be 0.561 ± 0.62.

KGAMA showed an amyloid nucleation score of 0.539 ± 0.39.

As to TGCVKGYSSRWWESFYGGTR, the amyloid nucleation score is -0.762 ± 0.79.

As to PVLDGHCSWGGLSTAEETDR, the amyloid nucleation score amounted to 0.29 ± 0.29.

For SGFEDVHAVVRFLIGVQYGG, the amyloid nucleation score was -0.515 ± 1.1.

On to VICVLSYADCSKLGWGHSLT, for which the amyloid nucleation score came out at 8.868 ± 0.043.

In turn, TCSRDVFGWTVLGTGLPPLR had an amyloid nucleation score of 0.878 ± 0.32.

In turn, IIDYFSN showed an amyloid nucleation score of -0.953 ± 1.1.

VSGDRLPSLFTCVRLLI came in with an amyloid nucleation score of 0.492 ± 0.41.

Substance FINLYRVGVVCFILNKVGYF had an amyloid nucleation score of 3.71 ± 0.052.

SSCVRLDELCAMMSMSWESQ returned an amyloid nucleation score of 1.26 ± 0.38.

On to SWCFVNGWWLYESAWEVMDS, for which the amyloid nucleation score is -0.199 ± 1.1.

As for FGVHVRCSEDDMAFALDLD, the amyloid nucleation score came to 0.155 ± 0.28.

RVTHRQDCMNVLGSRDYFER: the amyloid nucleation score was -0.574 ± 0.39.

Regarding DGGMR, the amyloid nucleation score was 0.322 ± 0.5.

YYLTT had an amyloid nucleation score of -1.6 ± 1.

In the case of RCVWINVGCSPILIGYAAHY, the amyloid nucleation score turned out to be 8.728 ± 0.03.

DSLLKVLRRIWCLYVGGNLI had an amyloid nucleation score of -0.758 ± 0.37.

As for LDLDMRGKHFVFHHTVKHAI, the amyloid nucleation score was 1.79 ± 0.14.

Take QFCSDCV: the amyloid nucleation score was -0.9 ± 0.76.

In the case of YDSLYWCGSWYLGLSWISLR, the amyloid nucleation score is -0.953 ± 0.62.

The substance GWCVHSKKDGKYCRSYTRQF showed an amyloid nucleation score of -0.136 ± 0.23.

SFLTYKARTMSSKLVKSIML displayed an amyloid nucleation score of -0.563 ± 0.76.

For MNVGCIDQFYCMWRCNIFWP, the amyloid nucleation score was 7.678 ± 0.055.

The substance TQLSV had an amyloid nucleation score of -0.046 ± 1.

For VRTPEYSLHLVAS, the amyloid nucleation score is -0.02 ± 0.61.

The substance AVELGSGGALSRDKLQGQDG yielded an amyloid nucleation score of 0.791 ± 0.74.

In turn, QMETSFL showed an amyloid nucleation score of -1.58 ± 1.1.

In turn, PRFAYCSSIANKMMGVG registered an amyloid nucleation score of 2.36 ± 0.18.

As for GFDLNFRYA, the amyloid nucleation score is 4.43 ± 0.077.

As to CYFCWDFLIGCNFTHNAQ, the amyloid nucleation score amounted to 7.237 ± 0.063.

ATDVCKKLWFALLVSVLVSS registered an amyloid nucleation score of 0.642 ± 0.48.

Turning to DFRCADCLKINFSIVQSK, the amyloid nucleation score stood at 7.257 ± 0.05.

For CNRSCLLGDNPCTVWRITLF, the amyloid nucleation score is -0.644 ± 0.48.

Substance LLYIDLVVHVFQSGSSGRLL showed an amyloid nucleation score of 2.79 ± 0.083.
